Legend:
[1] = ATPase assay (modified malachite green method); format: biochemical; settings: baculovirus-expressed subunit alone
Method: ATPase activity was measured by a modified malachite green method (Kodama et al. (1986) J. Biochem. 99: 1465-1472). ATPase reactions of 50-100 μl were carried out in a buffer previously used for measuring the ATPase activity of native katanin [20 mM K-HEPES pH 8.0, 25 mM potassium glutamate 2 mM MgCl2, 10% glycerol (v/v), 0.02% Triton X-100 (w/v), 1 mg/ml BSA] (McNally and Vale (1993) Cell, 75: 419-429), except that soybean trypsin inhibitor (SBTI) was replaced by BSA as a carrier protein because SBTI increased background phosphate contamination. An ATP regenerating system, consisting of 0.5-1.0 mM phosphoenol pyruvate and 2 units of pyruvate kinase, was included to minimize the inhibition by ADP observed previously for native katanin (McNally and Vale (1993) Cell, 75: 419-429). Microtubules were prepared from bovine brain tubulin (Hyman et al. (1990) Meth. Enzymol. 196: 303-319; and Williams and Lee (1982) Meth Enzymol. 85B: 376-385). After assembly, microtubules were sedimented (230,000×g; 10 min), resuspended in ATPase buffer lacking BSA, and the polymers were resuspended by repeated passage through a 27 gauge needle. Microtubule concentration was determined by measuring the absorbance at 275 nm in 6 M guanidine HCl by using a molecular mass of 110 kDa and an extinction coefficient of 1.03 ml mg^−1 cm^−1 (Hackney (1988) Proc. Natl. Acad Sci. USA, 85: 6314-6318). ATPase reactions were carried out at room temperature, and were initiated by addition of katanin.

[2] = tested on: Taxol-stabilized, rhodamine-labeled microtubules; experiment: Microscope-based microtubule severing assay; format: biochemical; settings: p60, p60/p80 0.1 μM; p80 0.5 μM (5-fold higher)
Method: FIGS. 5A, 5B, and 5C illustrate the activities of recombinant katanin subunits. […] Taxol-stabilized, rhodamine-labeled microtubules were adsorbed onto the surface of a microscope perfusion chamber, and then recombinant katanin subunits were introduced. The time elapsed after perfusing p60/p80 (0.1 μM), p60 (0.1 μM), or p80 (0.5 μM) is shown. The recombinant co-expressed p60/p80 and p60, but not p80, can sever and disassemble microtubules. Scale bar, 10 μm.
Microscope-based severing assays were performed using previously published procedures (McNally and Vale (1993) Cell, 75: 419-429), except that microtubules were immobilized by first perfusing flow cells with a bacterially expressed kinesin mutant that binds strongly to microtubules but is unable to hydrolyze ATP (K560, G234A mutant; R. Vale and E. Taylor, unpublished results). Assays were performed in 20 mM Hepes (pH 7.5), 2 mM MgCl2, 1 mM ATP with an oxygen scavenger system consisting of glucose oxidase (220 μg/ml), catalase (36 μg/ml), glucose (22.5 mM), and 2-mercaptoethanol (71.5 mM). Images were captured using a cooled, slow-scan CCD (Photometerics) and processed using Adobe Photoshop.

[3] = tested on: DAPI-labeled microtubules; experiment: DAPI fluorescence microtubule disassembly (severing) assay; format: biochemical, bovine; settings: 2 μM microtubules
From the text: To better compare the microtubule severing activities of p60 and p60/p80, we developed a quantitative microtubule disassembly assay based upon a previous finding that DAPI fluorescence intensity is higher when this dye is bound to polymerized versus free tubulin (Heusele et al. (1987) Eur. J Biochem. 165: 613-620). […] This slower rate of microtubule disassembly is consistent with the previously described 2-fold decrease in ATPase activity of p60 compared with p60/p80.
ATPase activity was measured by a modified malachite green method (Kodama et al. (1986) J. Biochem. 99: 1465-1472). […] Microtubule concentration was determined by measuring the absorbance at 275 nm in 6 M guanidine HCl by using a molecular mass of 110 kDa and an extinction coefficient of 1.03 ml mg^−1 cm^−1 (Hackney (1988) Proc. Natl. Acad Sci. USA, 85: 6314-6318). […]
DAPI severing assays were performed using conditions where the change in fluorescence intensity was linear with the amount of tubulin polymer added (Heusele et al. (1987) Eur. J Biochem. 165: 613-620). […] The reaction volume was 80 μL, and fluorescence intensity was measured by exciting at 370 nm. and measuring the emission at 450 mn using a model 8100 fluorimeter (SLM Instruments) in photon counting mode.

[4] = tested on: MSU1.1 human fibroblasts; experiment: Centrosome targeting of GFP fusion after transient transfection; format: cell-based; settings: 2-4 hr after transfection
Method: To allow transient expression of a human p80 WD40-GFP fusion protein in HeLa cells, a DNA fragment containing amino acids 1-263 of human p80 katanin was generated by PCR amplification, placing a BamHI site and a Kozak consensus at the predicted translation start and an EcoRI site after the codon for a.a. 263. This BamHI-EcoRI fragment was ligated into the GFP fusion vector pEGFP-N1 (Clontech).
Both MSU1.1 and HeLa cells were grown on 18 mm glass coverslips in Optimem medium (Life Technologies) supplemented with 10% fetal bovine serum, penicillin and streptomycin. Plasmids were transfected using Superfect Reagent (Qiagen) for 2 hr after which coverslips were washed with PBS and placed in fresh culture medium at 37° C. with 5% CO2 for 1-24 hr.
For imaging of GFP-fluorescence and immunofluorescence with the human p80 katanin antibody or with the γ-tubulin antibody, monoclonal GTU88 (Sigma Chemical), cells on coverslips were fixed either in −20° C. methanol or in 0.5×PBS, 3.7% formaldehyde, 75% methanol at 22° C. for 10 min followed by rehydration in TBST. Antibody labelling was carried out in TBST containing 4% BSA. Images were captured with a Nikon Microphot SA microscope, 100×Plan Fluor 1.3 objective, Photometrics Quantix camera and IP Lab Spectrum software (Scanalytics).

Molecule | ATPase activity (in words) [1] | microtubule severing (in words) [2] | change in DAPI fluorescence (in words) [3] | localization of GFP fluorescence [4]
p80: S. purpuratus katanin p80 subunit, 690 a.a. with six WD40 repeats (SEQ ID NO:2), baculovirus-expressed, His-tagged (protein, listed as Strongylocentrotus purpuratus, His tag; katanin p80 subunit) MATKRAWKLQELVAHSSNVNCLALGPMSGRVMVTGGEDKKVNLWAVGKQNCIISLSGHTSPVDSVKFNSSEELVVAGSQSGTMKIYDLEPAKIVRTLTGHRNSIRCMDFHPFGEFVASGSTDTNVKLWDVRRKGCIYTYKGHSDQVNMIKFSPDGKWLVTASEDTTIKLWDLTMGKLFQEFKNHTGGVTGIEFHPNEFLLASGSSDRTVQFWDLETFQLVSSTSPGASAVRSISFHPDGSYLFCSSQDMLHAFGWEPIRCFDTFSVGWGKVADTVIASTQLIGASFNATNVSVYVADLSRMSTTGIAQEPQSQPSKTPSGGAEEVPSKPLTASGRKNFVRERPHTTSSKQRQPDVKSEPERQSPTQDEGVKDDDATDIKDPDSYAKIFSPKTRVDHSPERNAQPFPAPLDVPGAQEPEPFKHPPKPAAAAAVAPVSRAPAPSASDWQPAQANPAPNRVPAATKPVPAQEVAPSRKPDPISTIIPSDRNKPANLDMDAFLPPAHAQQAPRVNAPASRKQSDSERIEGLRKGHDSMCQVLSSRHRNLDVVRAIWTAGDAKTSVESVVNMKDQAILVDILNIMLLKKSLWNLDMCVVVLPRLKELLSSKYENYVHTSCACLKLILKNFTSLFNQNIKCPPSGIDITREERYNKCSKCYSYLIATRGYVEEKQHVSGKLGSSFRELHLLLDQLE | no detectable ATPase activity | unable to sever microtubules | did not cause a change in fluorescence that was different from that shown for microtubules alone | 
p80 WD40-GFP: fusion of the six WD40 repeats of human p80 katanin (a.a. 1-263) to the N-terminus of green fluorescent protein (protein, left off: large carriers, fusion of the six WD40 repeats of human p80 katanin (a.a. 1-263) to the N-terminus of green fluorescent protein) MATPVVTKTAWKLQEIVAHASNVSSLVLGKASGRLLATGGDDCRVNLWSINKPNCIMSLTGHTSPVESVRLNTPEELIVAGSQSGSIRVWDLEAAKILRTLMGHKANICSLDFHPYGEFVASGSQDTNIKLWDIRRKGCVFRYRGHSQAVRCLRFSPDGKWLASAADDHTVKLWDLTAGKMMSEFPGHTGPVNVVEFHPNEYLLASGSSDRTIRFWDLEKFQVVSCIEGEPGPVRSVLFNPDGCCLYSGCQDSLRVYGWEPER |  |  |  | co-localized with γ-tubulin staining

— US6429304B1, “Nucleic acids encoding a katanin p60 subunit” (The Regents of the University of California, priority 1998, dated 2002)
